From patent publication US20040072749A1

Target: cell-surface MOG-specific IgG1 of 8.18-C5 hybridoma cells
Assay: flow cytometry on 8.18-C5 hybridoma cells, biotinylated rMOG and FITC-streptavidin

percent of cells that bound rMOG: > 90%
Substance: recombinant, biotinylated MOG (rMOG)
